Values of other authors, collected in PMC4289615.

Target: IL-2Rβγ (intermediate-affinity IL-2 receptor) (Homo sapiens) (UniProt P14784)
UniProt P14784, sequence (P14784 27-240, chain 1 of 2): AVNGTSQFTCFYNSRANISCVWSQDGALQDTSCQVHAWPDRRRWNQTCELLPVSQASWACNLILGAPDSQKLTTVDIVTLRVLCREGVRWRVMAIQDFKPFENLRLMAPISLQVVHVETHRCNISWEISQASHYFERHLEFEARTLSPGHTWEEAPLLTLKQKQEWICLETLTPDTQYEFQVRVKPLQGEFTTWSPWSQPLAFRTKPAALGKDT
UniProt P14784, sequence (P31785 23-262, chain 2 of 2, further chain): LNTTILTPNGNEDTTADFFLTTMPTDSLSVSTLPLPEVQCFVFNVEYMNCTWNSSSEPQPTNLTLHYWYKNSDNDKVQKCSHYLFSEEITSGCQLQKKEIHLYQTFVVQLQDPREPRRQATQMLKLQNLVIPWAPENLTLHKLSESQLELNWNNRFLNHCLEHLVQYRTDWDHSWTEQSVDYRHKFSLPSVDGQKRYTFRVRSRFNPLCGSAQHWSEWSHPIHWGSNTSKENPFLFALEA

IL-2, sequence (P60568 21-153): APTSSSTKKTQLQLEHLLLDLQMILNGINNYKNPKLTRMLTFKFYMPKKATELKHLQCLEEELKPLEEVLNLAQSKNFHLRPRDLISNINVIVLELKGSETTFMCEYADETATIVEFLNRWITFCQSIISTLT

Kd: 1 nM
Substance: IL-2 (from UniProt P60568)
